The results in this text go back to PMC12237909, “Wheat endosperm-specific transcription factor TaDOF6 enhances grain development by regulating TaSWEET13h expression and facilitating sugar and gibberellin transport”.

The data set deals with T1, TaDOF6 (Triticum aestivum (wheat; cultivar of …, UniProt A0A3B6LII6 1-338).
T1 sequence: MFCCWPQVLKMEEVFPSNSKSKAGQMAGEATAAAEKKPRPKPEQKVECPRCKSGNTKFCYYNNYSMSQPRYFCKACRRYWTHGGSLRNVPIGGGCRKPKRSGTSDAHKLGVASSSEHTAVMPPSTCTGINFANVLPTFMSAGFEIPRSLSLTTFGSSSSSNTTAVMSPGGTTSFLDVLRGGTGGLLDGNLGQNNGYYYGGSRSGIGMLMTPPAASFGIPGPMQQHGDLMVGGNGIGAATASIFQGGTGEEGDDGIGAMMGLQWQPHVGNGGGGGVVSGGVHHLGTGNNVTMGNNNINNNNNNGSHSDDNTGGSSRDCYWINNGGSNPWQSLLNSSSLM
Description: EMSA; EMSA buffer, salt, pH and temperature not stated (gel as in Zhang et al., 2016); probes annealed 95 C to 25 C. The note with it: protein: recombinant; tags: His (pETMALc-H vector); label: biotin (printed at both ends of each strand); blunt. (In general: A gel shift assay detects complexes by their altered migration in electrophoresis.)

B1: TaSWEET13h promoter P-box probe (dsDNA)
DNA 1: ATTAAAGCTAAAGTGTACACCAAAGCGACAACTTTTG
DNA 2: CAAAAGTTGTCGCTTTGGTGTACACTTTAGCTTTAAT
B1: the binding result is “binds”.
